Measurements published in patent US20050020492A1 (MERCK, published 2005).
Positions of bridges follow the written chain, without caps; N, C: chain ends. Non-standard residues stand in square brackets, D forms with d. Cha = N[C@@H](CC1CCCCC1)C(=O)O

B1: SEQ. ID. NO. 21 (Nal(2′)^10 analog of Ac-hMCH(6-16)-NH2) (peptide)
peptide: RCMLXRVYRPC
HELM: PEPTIDE1{[ac].R.C.M.L.[O=C([C@H](Cc1ccc2ccccc2c1)N[*:1])[*:2]].R.V.Y.R.P.C.[am]}$PEPTIDE1,PEPTIDE1,3:R3-12:R3$$$V2.0
SMILES: CSCC[C@@H]1NC(=O)[C@@H](NC(=O)[C@H](CCCNC(=N)N)NC(C)=O)CSSC[C@@H](C(N)=O)NC(=O)[C@@H]2CCCN2C(=O)[C@H](CCCNC(=N)N)NC(=O)[C@H](Cc2ccc(O)cc2)NC(=O)[C@H](C(C)C)NC(=O)[C@H](CCCNC(=N)N)NC(=O)[C@H](Cc2ccc3ccccc3c2)NC(=O)[C@H](CC(C)C)NC1=O
B2: SEQ. ID. NO. 20 (Phe^10 analog of Ac-hMCH(6-16)-NH2) (peptide)
peptide: Ac-RCMLFRVYRPC-NH2
modifications: disulfide 2-11 (inferred)
B3: SEQ. ID. NO. 23 (Arg^10 analog of Ac-hMCH(6-16)-NH2) (peptide)
peptide: Ac-RCMLRRVYRPC-NH2
modifications: disulfide 2-11 (inferred)
B4: SEQ. ID. NO. 28 (Glu^10 analog of Ac-hMCH(6-16)-NH2) (peptide)
peptide: Ac-RCMLERVYRPC-NH2
modifications: disulfide 2-11 (inferred)
notes: also called Glu^10 peptide
B5: SEQ. ID. NO. 25 (Asn^10 analog of Ac-hMCH(6-16)-NH2) (peptide)
peptide: Ac-RCMLNRVYRPC-NH2
modifications: disulfide 2-11 (inferred)
notes: also called Asn^10 peptide
B6: SEQ. ID. NO. 26 (Ser^10 analog of Ac-hMCH(6-16)-NH2) (peptide)
peptide: Ac-RCMLSRVYRPC-NH2
modifications: disulfide 2-11 (inferred)
notes: also called Ser^10 peptide
B7: SEQ. ID. NO. 24 (Lys^10 analog of Ac-hMCH(6-16)-NH2) (peptide)
peptide: Ac-RCMLKRVYRPC-NH2
modifications: disulfide 2-11 (inferred)
B8: SEQ. ID. NO. 22 (Pro^10 analog of Ac-hMCH(6-16)-NH2) (peptide)
peptide: Ac-RCMLPRVYRPC-NH2
modifications: disulfide 2-11 (inferred)
B9: SEQ. ID. NO. 18 (Nle^10 analog of Ac-hMCH(6-16)-NH2) (peptide)
peptide: RCMLXRVYRPC
modifications: N-terminal acetyl; Nle (norleucine) at position 10; C-terminal amide; disulfide cycle
B10: SEQ. ID. NO. 27 (Cit^10 analog of Ac-hMCH(6-16)-NH2) (peptide)
peptide: RCMLXRVYRPC
HELM: PEPTIDE1{[ac].R.C.M.L.[Cit].R.V.Y.R.P.C.[am]}$PEPTIDE1,PEPTIDE1,3:R3-12:R3$$$V2.0
SMILES: CSCC[C@@H]1NC(=O)[C@@H](NC(=O)[C@H](CCCNC(=N)N)NC(C)=O)CSSC[C@@H](C(N)=O)NC(=O)[C@@H]2CCCN2C(=O)[C@H](CCCNC(=N)N)NC(=O)[C@H](Cc2ccc(O)cc2)NC(=O)[C@H](C(C)C)NC(=O)[C@H](CCCNC(=N)N)NC(=O)[C@H](CCCNC(N)=O)NC(=O)[C@H](CC(C)C)NC1=O
notes: also called Cit^10 peptide
B11: SEQ. ID. NO. 19 (Cha^10 analog of Ac-hMCH(6-16)-NH2) (peptide)
peptide: Ac-RCML[Cha]RVYRPC-NH2
modifications: disulfide 2-11
B12: SEQ. ID. NO. 11 (Ac-D-Ser^6 analog of Ac-hMCH(6-16)-NH2) (peptide)
peptide: XCMLGRVYRPC
modifications: N-terminal acetyl; D-Ser at position 6; C-terminal amide; disulfide cycle
B13: SEQ. ID. NO. 7 (Ac-D-Nle^6 analog of Ac-hMCH(6-16)-NH2) (peptide)
peptide: XCMLGRVYRPC
modifications: N-terminal acetyl; D-Nle (D-norleucine) at position 6; C-terminal amide; disulfide cycle
B14: SEQ. ID. NO. 6 (Ac-D-Ala^6 analog of Ac-hMCH(6-16)-NH2) (peptide)
peptide: XCMLGRVYRPC
HELM: PEPTIDE1{[ac].[dA].C.M.L.G.R.V.Y.R.P.C.[am]}$PEPTIDE1,PEPTIDE1,3:R3-12:R3$$$V2.0
SMILES: CSCC[C@@H]1NC(=O)[C@@H](NC(=O)[C@@H](C)NC(C)=O)CSSC[C@@H](C(N)=O)NC(=O)[C@@H]2CCCN2C(=O)[C@H](CCCNC(=N)N)NC(=O)[C@H](Cc2ccc(O)cc2)NC(=O)[C@H](C(C)C)NC(=O)[C@H](CCCNC(=N)N)NC(=O)CNC(=O)[C@H](CC(C)C)NC1=O
B15: SEQ. ID. NO. 10 (Ac-D-Asn^6 analog of Ac-hMCH(6-16)-NH2) (peptide)
peptide: XCMLGRVYRPC
modifications: N-terminal acetyl; D-Asn at position 6; C-terminal amide; disulfide cycle
B16: SEQ. ID. NO. 3 (Gva^6 analog of Ac-hMCH(6-16)-NH2) (peptide)
peptide: XCMLGRVYRPC
modifications: position 6 is Gva, des-amino-arginine (5-guanidinovaleric acid), no acetyl; C-terminal amide; disulfide cycle
B17: SEQ. ID. NO. 4 (D-Arg^6 analog lacking an Ac group) (peptide)
peptide: XCMLGRVYRPC
modifications: D-Arg at position 6, no acetyl; C-terminal amide; disulfide cycle
B18: SEQ. ID. NO. 8 (Ac-D-Pro^6 analog of Ac-hMCH(6-16)-NH2) (peptide)
peptide: XCMLGRVYRPC
modifications: N-terminal acetyl; D-Pro at position 6; C-terminal amide; disulfide cycle
B19: SEQ. ID. NO. 9 (Ac-D-Phe^6 analog of Ac-hMCH(6-16)-NH2) (peptide)
peptide: XCMLGRVYRPC
HELM: PEPTIDE1{[ac].[dF].C.M.L.G.R.V.Y.R.P.C.[am]}$PEPTIDE1,PEPTIDE1,3:R3-12:R3$$$V2.0
SMILES: CSCC[C@@H]1NC(=O)[C@@H](NC(=O)[C@@H](Cc2ccccc2)NC(C)=O)CSSC[C@@H](C(N)=O)NC(=O)[C@@H]2CCCN2C(=O)[C@H](CCCNC(=N)N)NC(=O)[C@H](Cc2ccc(O)cc2)NC(=O)[C@H](C(C)C)NC(=O)[C@H](CCCNC(=N)N)NC(=O)CNC(=O)[C@H](CC(C)C)NC1=O
B20: SEQ. ID. NO. 12 (Ac-D-Glu^6 analog of Ac-hMCH(6-16)-NH2) (peptide)
peptide: XCMLGRVYRPC
modifications: not fully specified; N-terminal acetyl; D-Glu at position 6; C-terminal amide; disulfide cycle
B21: SEQ. ID. NO. 13 (Ac-D-Lys^6 analog of Ac-hMCH(6-16)-NH2) (peptide)
peptide: XCMLGRVYRPC
HELM: PEPTIDE1{[ac].[dK].C.M.L.G.R.V.Y.R.P.C.[am]}$PEPTIDE1,PEPTIDE1,3:R3-12:R3$$$V2.0
SMILES: CSCC[C@@H]1NC(=O)[C@@H](NC(=O)[C@@H](CCCCN)NC(C)=O)CSSC[C@@H](C(N)=O)NC(=O)[C@@H]2CCCN2C(=O)[C@H](CCCNC(=N)N)NC(=O)[C@H](Cc2ccc(O)cc2)NC(=O)[C@H](C(C)C)NC(=O)[C@H](CCCNC(=N)N)NC(=O)CNC(=O)[C@H](CC(C)C)NC1=O
B22: SEQ. ID. NO. 5 (Ac-D-Arg^6 analog of Ac-hMCH(6-16)-NH2) (peptide)
peptide: XCMLGRVYRPC
modifications: N-terminal acetyl; D-Arg at position 6; C-terminal amide; disulfide cycle

Target: T1, human MCH-1R (human, UniProt Q99705 1-353)
Test: cell-based or functional assay

T1 sequence (Q99705 whole entry): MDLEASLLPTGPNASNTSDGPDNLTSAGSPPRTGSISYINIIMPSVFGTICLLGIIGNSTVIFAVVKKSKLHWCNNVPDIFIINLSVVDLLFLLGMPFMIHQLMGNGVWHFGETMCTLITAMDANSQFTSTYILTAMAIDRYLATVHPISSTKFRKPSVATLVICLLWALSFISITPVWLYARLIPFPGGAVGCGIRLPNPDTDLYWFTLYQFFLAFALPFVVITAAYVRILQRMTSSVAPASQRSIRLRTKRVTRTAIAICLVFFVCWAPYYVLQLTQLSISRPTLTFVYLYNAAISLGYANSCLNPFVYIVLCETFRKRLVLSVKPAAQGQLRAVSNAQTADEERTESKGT

Binder	Activation %, aequorin bioluminescence [%]	EC50, aequorin bioluminescence [nM]	Selectivity 2/1 (MCH-2R/MCH-1R EC50 activity ratio) [ratio]
B1	7	> 10000	
B2	75	66	0.75
B3	7	> 10000	
B4	21	> 10000	
B5	126	51	4.7
B6	120	130	0.7
B7	43	5700	1
B8	10	> 10000	
B9	115		0.4
B10	91	920	0.3
B11	76	1200	0.25

Target: T2, human MCH-2R (human, UniProt Q969V1 1-340)
Test: cell-based or functional assay

T2 sequence (Q969V1 whole entry): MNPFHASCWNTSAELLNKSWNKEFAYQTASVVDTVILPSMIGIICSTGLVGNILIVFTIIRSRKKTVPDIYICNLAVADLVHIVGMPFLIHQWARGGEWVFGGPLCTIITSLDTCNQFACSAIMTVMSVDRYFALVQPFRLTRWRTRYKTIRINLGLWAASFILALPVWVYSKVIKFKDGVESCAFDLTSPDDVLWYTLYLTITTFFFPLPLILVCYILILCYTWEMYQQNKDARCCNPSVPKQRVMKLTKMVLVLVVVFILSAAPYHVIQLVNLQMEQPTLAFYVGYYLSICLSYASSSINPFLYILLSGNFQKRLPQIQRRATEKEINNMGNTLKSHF

Binder	Activation %, aequorin bioluminescence [%]	EC50, aequorin bioluminescence [nM]
B1	105	81
B2	88	50
B3	38	1660
B4	22	> 10000
B5	86	240
B6	87	89
B7	40	6050
B8	13	> 10000
B9	97	
B10	68	310
B11	74	300

Target: T2, human MCH-2R
Test: SPA, displacement of [125I]-[Phe13,Tyr19]-hMCH, MCH-2R membranes
Experimental: (§1) After equilibrating at room temperature for 3 hours, the plates were read in a TopCount (Packard, Meriden, Conn.). IC₅₀ calculations were performed using Prism 3.0 (GraphPad. Software, San Diego, Calif.). The IC₅₀ values were measured in three different experiments.

Binder	IC50 [nM]
B1	18
B2	1.9
B3	420
B5	490
B6	55
B7	1460
B8	3500
B9	1.9
B10	130
B11	55

Target: T1, human MCH-1R
Test: ratio of the two SPA IC50s

Binder	Selectivity 2/1 (MCH-2R/MCH-1R IC50 ratio) [ratio]
B1	14
B2	19
B3	0.7
B5	1800
B6	100
B7	86
B8	5
B9	21
B10	42
B11	11

Target: T1, human MCH-1R
Test: cell-based or functional assay
Remark: another data set of the same source

Binder	Activation %, aequorin bioluminescence [%]	EC50, aequorin bioluminescence [nM]
B12	114	160
B13	115	
B14	109	160
B15	113	260
B16	49	
B17	130	107
B18	120	
B19	117	66
B20	100	
B21	130	94
B22	97	

Target: T2, human MCH-2R
Test: cell-based or functional assay
Remark: another data set of the same source

Binder	Activation %, aequorin bioluminescence [%]	EC50, aequorin bioluminescence [nM]
B12	39	
B13	69	
B14	51	4900
B15	42	
B16	102	
B17		55
B19		510
B20	20	
B21	55	2100

Target: T2, human MCH-2R
Test: SPA, displacement of [125I]-[Phe13,Tyr19]-hMCH, MCH-2R membranes
Remark: another data set of the same source
Experimental: as §1

Binder	IC50 [nM]
B13	1460
B14	2700
B17	47
B19	1250
B21	1030

Target: T1, human MCH-1R
Test: SPA, displacement of [125I]-[Phe13,Tyr19]-hMCH, CHO/MCH-1R membranes
Experimental: as §1

Binder	IC50 [nM]
B1	1.3
B2	0.1
B3	640
B4	290
B5	0.28
B6	0.54
B7	17
B8	760
B9	0.1
B14	0.77
B17	0.35
B19	0.9
B10	3.1
B21	0.3
B11	5
